Reference: patent EP1897948A1 (ZymoGenetics, Inc., dated 2008)

Target: the molecule itself
Experiment: western blot of BHK media, reducing (29 kDa) against non-reducing (49 kDa)

B1: Human Ztgfβ-9 protein (ligand)
chain: AGAPRAGRRPARPRGCADRPEELLEQLYGRLAAGVLSAFHHTLQLGPREQARNASCPAGGRPADRRFRPPTNLRSVSPWAYRISYDPARYPRYLPEAYCLCRGCLTGLFGEEDVRFRSAPVYMPTVVLRRTPACAGGRSVYTEAYVTIPVGCTCVPEPEKDADSINSSIDKQGAKLLLGPNDAPAGP
notes: Expressed in BHK cells without a tag and secreted into the medium; also called transforming growth factor beta-9
B1: binds.
